Target: T1, TNF-α (UniProt P01375 77-233, biotinylated)
T1 construct: also called TNF-alpha; biotintylated TNF-α soluble protein (R&D Systems)
Experiment: Octet BLI, biotinylated TNF-α on streptavidin tips
Experimental: The target protein was biotintylated TNF-α soluble protein (R&D Systems) and is at a concentration of 0.25 ug/ml for loading onto the streptavidin sensor tips. […] The Octet was run using the manufacturers protocol for Basic Kinetic Assay.

T1 sequence (P01375 77-233 limits assumed): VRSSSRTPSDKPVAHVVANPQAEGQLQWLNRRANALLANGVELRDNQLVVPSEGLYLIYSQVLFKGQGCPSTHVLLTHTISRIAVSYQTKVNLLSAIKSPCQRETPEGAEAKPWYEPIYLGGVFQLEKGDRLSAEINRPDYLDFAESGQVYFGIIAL

- Kd: 20 to 100 nM
B1: TNF-α binder R41A6 (designed binder)
chain: NVSPPRRARVTDATETTITISWEHSEDDCYSYIYYFQVDAVPANGQTPIQRTISGYETYYTITGLQPGTDYKIYLYTLNSAGFCPPYSKPVVIDAST
notes: 14FN3 variant; for the Octet expressed from pET-20b with pelB signal and C-terminal hexahistidine tag; also called TNF A6

From patent publication US20110021746A1 (published 2011)
